The results in this text go back to US20060293243A1, “Stable, buffered, pharmaceutical compositions including motilin-like peptides” (priority 2005, published 2006).

What all share (format): physicochemical
Data set [1] is described as follows: Stability of lyophilized formulations of motilin-like peptide compositions (HPLC after reconstitution in water). The settings on record: 30 μg/ml in 10 mM citrate buffer, 1% w/v sucrose, pH 6.0, stored in 20 ml vial at 40° C. for several months, reconstituted in water. As to the method:
The motilin-like peptide including SEQ ID NO.: 1 was dissolved at a concentration of 30 μg/ml in 10 mM citrate buffer and 1% w/v of sucrose (bulking agent) at pH 6.0. The composition was lyophilized by standard techniques and stored in a 20 ml vial at 40° C. The potency of the motilin-like peptide was measured at the time intervals indicated in FIG. 5, by reconstituting the composition in water. Potency was determined by using HPLC to measure the amount of undegraded peptide remaining in each sample. […] Again, it will be appreciated by those skilled in the art that the stability of pharmaceutical compositions at elevated temperatures, such as 40° C. as in FIG. 5, may serve as the basis of prediction of stability for longer periods at more typical storage temperatures, such as approximately 20° C.-25° C. or 4° C.-8° C., for example.

Data set [2] in a line: Stability of motilin-like peptide following autoclaving and storage (HPLC, undegraded peptide remaining). Particulars: 30 μg/ml in 10 mM sodium acetate buffer, pH 5.0; Type I glass vials; autoclaved at 121° C. for 15 minutes; storage for 3 months at 55° C. As to the method: The motilin-like peptide of SEQ ID NO.: 1 was dissolved at a concentration of 30 μg/ml in 10 mM sodium acetate buffer, pH 5.0. Samples of the peptide solution stored in Type I glass vials were autoclaved at 121° C. for 15 minutes and the autoclaved samples were incubated at 5° C., 25° C., 40° C., or 55° C. The potency of the peptide following storage at each temperature was measured over time by testing samples after incubation of one week, two weeks, three weeks, one month and three months. Potency was determined by using HPLC to measure the amount of undegraded peptide remaining in each sample.
It will be appreciated by those skilled in the art that stability data obtained at such elevated temperatures (i.e., accelerated storage conditions) may be used to predict stability at lower, more typical storage temperatures over extended periods of time.

A short description of data set [3]: Stability profile of aqueous composition stored in Schott Type 1 glass vials (FIGS. 3 and 4). The settings on record: Schott Type 1 vials. From the text:
Some plastics have also proven to be effective in assisting in the stabilization of the peptide composition. In this regard, preferred plastics are cyclic olefin copolymers, available, for example, from West Pharmaceuticals under the product name CZ resin vials, or from Schott under the product name TopPac vials, or from Alcan packaging under the product name Ticona Topas serum vials. The compositions of the present invention may also be stored in PVC, as well as non-PVC flexible bags. When stored in the above described glass or plastic containers, the above-described storage times at the above-described storage temperatures can be achieved, although for storage periods of at least 18 months, Type I Plus (vapor treated silicon) vials and Type I Plus glass ampules are preferred. […] It will be appreciated by those skilled in the art that the measured stability of pharmaceutical compositions at elevated temperatures, such as 40° C. or higher, may serve as the basis of prediction of stability for longer periods at more typical storage temperatures, such as 20°-25° C. or 4°-8° C., for example. Such “accelerated storage” studies are common in the field of the present invention.

Data set [4] can be described thus: Degradation during storage as a function of composition pH. The settings on record: pH approximately 3 to 9, most preferably approximately 4.8-5.2. As to the method:
In one embodiment, where the composition is provided in a “ready-to-use” form, the motilin-like peptide is dissolved in a buffer solution to provide an aqueous composition. […] More preferably, the pH of the pharmaceutical compositions is between approximately 4 and 6, more preferably 4.5 and 5.5 and, most preferably, between approximately 4.8-5.2. At these pH levels, the peptide of SEQ. ID. […] (The preferred pH of the composition may also be determined, in part, based on whether the composition is prepared as an aqueous composition or a lyophilized formulation, discussed below.)

Non-standard residues stand in square brackets, D forms with d. Me3N+ = N-terminal trimethylammonium

As for “(Me3N) ^+Phe-Val-Pro-Ile-Phe-Thr-Tyr-Gly-Glu-Leu-Gln-D-Arg-Leu-Lys-NH2 ({Me3N+}-FVPIFTYGELQ[dR]LK-NH2) [SEQ ID NO.: 1, synthetic motilin-like peptide receptor agonist]”, the “potency retained (amount of undegraded peptide remaining by HPLC)” value in data set [1] and in data set [2] was “greater than 90%” throughout. Further, the “stability (maintenance of high levels of potency)” value in data set [3] (30 μg/ml, several months at 5° C. to 55° C. (FIG. 4)) is listed as “demonstrated stability”; in data set [3] (approximately 5 μg/ml, several months at 5° C. to 55° C. (FIG. 3)), “demonstrated stability”. The degradation during storage entry in data set [4] was “only minimal degradation”.
